Laboratory results as given in article PMC11654684, “The nucleocapsid architecture and structural atlas of the prototype baculovirus define the hallmarks of a new viral realm” (Science Advances, 2024).

Target: the molecule itself
Assay: cryo-EM structure; intact AcMNPV budded virions purified from Sf9 culture, TE buffer (50 mM Tris, 0.5 mM EDTA, pH 8.7); helical reconstruction (C14, 4.2 Å) and localized reconstruction of four neighbouring VP39 dimers of the tube (3.1 Å)

B1: major capsid protein (MCP) (natural protein)
chain: MALVPVGMAPRQMRVNRCIFASIVSFDACITYKSPCSPDAYHDDGWFICNNHLIKRFKMSKMVLPIFDEDDNQFKMTIARHLVGNKERGIKRILIPSATNYQDVFNLNSMMQAEQLIFHLIYNNENAVNTICDNLKYTEGFTSNTQRVIHSVYATTKSILDTTNPNTFCSRVSRDELRFFDVTNARALRGGAGDQLFNNYSGFLQNLIRRAVAPEYLQIDTEELRFRNCATCIIDETGLVASVPDGPELYNPIRSSDIMRSQPNRLQIRNVLKFEGDTRELDRTLSGYEEYPTYVPLFLGYQIINSENNFLRNDFIPRANPNATLGGGAVAGPAPGVAGEAGGGIAV
notes: Major capsid protein VP39 (AC89) of Autographa californica multiple nucleopolyhedrovirus, as it stands in the budded virion; the model comprises Val15 to Asn320 (loop Asp27 to Ser34 built only in some subunits); the last 30 residues are not visible; Native protein in the nucleocapsid of intact budded virions; contains a CCCH zinc finger; also called VP39; AC89; source: AcMNPV budded virions …
stoichiometry N: 2
